The Human Domainome abundance scans (Beltran et al. 2025)
± gives the uncertainty stated by the source.

B1: Poly(rC)-binding protein 1, residues 278 to 350; numbered along this chain, Q15365 (parent)
chain: TQTTHELTIPNNLIGCIIGRQGANINEIRQMSGAQIKIANPVEGSSGRQVTITGSAASISLAQYLINARLSSE

Variants of: B1
Assay: abundance fitness (aPCA) (normalised: wild type 0, dead -1); higher = more abundant; growth selection in yeast, the domain comes from the species named
Conditions: Homo sapiens

Going from I36W to I36R, the abundance fitness rises from -1.04 ± 0.12 to -0.835 ± 0.069.

I36D and I36G are within error of each other in abundance fitness: -0.852 ± 0.42 for the first, -0.782 ± 0.062 for the second.

Going from I36C to I36Q, the abundance fitness falls from -0.276 ± 0.2 to -0.829 ± 0.14.

Compared with I36K, I36F is higher in abundance fitness: -1.14 ± 0.27 for the first, -0.5 ± 0.21 for the second.

I36Y and I36H are within error of each other in abundance fitness: -0.767 ± 0.43 for the first, 0.062 ± 0.43 for the second.

Going from I36M to I36L, the abundance fitness rises from -0.648 ± 0.078 to -0.406 ± 0.045.

I36P and I36A are within error of each other in abundance fitness: -1.01 ± 0.24 for the first, -0.97 ± 0.14 for the second.

I36E and I36N are within error of each other in abundance fitness: -0.986 ± 0.18 for the first, -0.689 ± 0.29 for the second.

S45R and S45V are within error of each other in abundance fitness: -0.157 ± 0.07 for the first, -0.012 ± 0.087 for the second.

S45T and S45L are within error of each other in abundance fitness: 0.056 ± 0.046 for the first, -0.011 ± 0.05 for the second.

First: S45H
Second: S45E
The abundance fitness of the first is lower: -0.223 ± 0.087 for the first, 0.002 ± 0.1 for the second.

S45N and S45M are within error of each other in abundance fitness: -0.031 ± 0.067 for the first, 0.005 ± 0.073 for the second.

S45I and S45D are within error of each other in abundance fitness: -0.093 ± 0.076 for the first, 0.026 ± 0.15 for the second.

First: S45F
Second: S45G
The abundance fitness of the first is higher: -0.009 ± 0.094 for the first, -0.292 ± 0.12 for the second.

Going from S45Y to S45W, the abundance fitness falls from -0.044 ± 0.075 to -0.431 ± 0.15.

First: S45P
Second: S45C
The abundance fitness of the first is lower: -0.442 ± 0.091 for the first, 0.012 ± 0.13 for the second.

Compared with S45K, S45Q is lower in abundance fitness: 0.094 ± 0.076 for the first, -0.054 ± 0.065 for the second.

Compared with S45A, Q30W is lower in abundance fitness: -0.002 ± 0.062 for the first, -0.334 ± 0.056 for the second.

Q30M and Q30N are within error of each other in abundance fitness: -0.137 ± 0.048 for the first, 0.147 ± 0.42 for the second.

Compared with Q30F, Q30K is higher in abundance fitness: -0.094 ± 0.16 for the first, 0.172 ± 0.092 for the second.

First: Q30L
Second: Q30P
The abundance fitness of the first is higher: -0.163 ± 0.035 for the first, -0.809 ± 0.16 for the second.

Q30S and Q30E are within error of each other in abundance fitness: 0.023 ± 0.064 for the first, 0.013 ± 0.079 for the second.

Going from Q30T to Q30G, the abundance fitness falls from 0.064 ± 0.074 to -0.168 ± 0.047.

Compared with Q30R, S46R is lower in abundance fitness: 0.099 ± 0.038 for the first, -0.106 ± 0.048 for the second.

S46C and S46N are within error of each other in abundance fitness: -0.021 ± 0.081 for the first, 0.069 ± 0.052 for the second.

S46M and S46H are within error of each other in abundance fitness: -0.139 ± 0.054 for the first, -0.205 ± 0.084 for the second.

S46A and S46I are within error of each other in abundance fitness: -0.015 ± 0.051 for the first, -0.104 ± 0.08 for the second.

S46G and S46T are within error of each other in abundance fitness: -0.032 ± 0.057 for the first, -0.063 ± 0.046 for the second.

S46W and S46Y are within error of each other in abundance fitness: -0.125 ± 0.069 for the first, -0.117 ± 0.057 for the second.

Going from S46K to S46D, the abundance fitness rises from -0.002 ± 0.044 to 0.19 ± 0.076.

S46Q and S46E are within error of each other in abundance fitness: -0.048 ± 0.048 for the first, -0.088 ± 0.057 for the second.

S46F and S46P are within error of each other in abundance fitness: 0.002 ± 0.075 for the first, -0.029 ± 0.049 for the second.

Compared with S46V, S46L is higher in abundance fitness: -0.179 ± 0.067 for the first, 0.064 ± 0.041 for the second.

M31G and M31W are within error of each other in abundance fitness: -0.347 ± 0.043 for the first, -0.325 ± 0.056 for the second.

M31E and M31A are within error of each other in abundance fitness: 0.019 ± 0.049 for the first, 0.038 ± 0.046 for the second.

M31Y and M31L are within error of each other in abundance fitness: -0.056 ± 0.16 for the first, -0.009 ± 0.042 for the second.

M31C and M31N are within error of each other in abundance fitness: 0.029 ± 0.088 for the first, 0.203 ± 0.13 for the second.

First: M31K
Second: M31I
The abundance fitness of the first is higher: 0.162 ± 0.061 for the first, -0.196 ± 0.14 for the second.

Going from M31R to M31V, the abundance fitness falls from 0.088 ± 0.032 to -0.126 ± 0.047.

M31D and M31F are within error of each other in abundance fitness: -0.337 ± 0.18 for the first, -0.109 ± 0.24 for the second.

Going from M31Q to M31S, the abundance fitness falls from 0.095 ± 0.047 to -0.171 ± 0.053.

Compared with M31P, M31T is higher in abundance fitness: -0.894 ± 0.17 for the first, -0.051 ± 0.073 for the second.

G44F and G44K are within error of each other in abundance fitness: -0.182 ± 0.094 for the first, -0.229 ± 0.066 for the second.

Compared with G44A, G44I is lower in abundance fitness: -0.213 ± 0.065 for the first, -0.732 ± 0.18 for the second.

First: G44M
Second: G44R
The abundance fitness of the first is lower: -0.343 ± 0.068 for the first, -0.212 ± 0.055 for the second.

Going from G44Y to G44T, the abundance fitness falls from 0.081 ± 0.078 to -0.374 ± 0.059.

First: G44H
Second: G44N
The abundance fitness of the first is lower: -0.333 ± 0.1 for the first, -0.12 ± 0.088 for the second.

G44E and G44C are within error of each other in abundance fitness: -0.278 ± 0.1 for the first, -0.19 ± 0.12 for the second.

G44P and G44S are within error of each other in abundance fitness: -0.211 ± 0.054 for the first, -0.235 ± 0.049 for the second.

First: G44D
Second: G44Q
The abundance fitness of the first is higher: -0.087 ± 0.13 for the first, -0.308 ± 0.069 for the second.

G44L and G44V are within error of each other in abundance fitness: -0.401 ± 0.05 for the first, -0.353 ± 0.078 for the second.

G44W and A39V are within error of each other in abundance fitness: -0.424 ± 0.1 for the first, -0.382 ± 0.046 for the second.

First: A39P
Second: A39M
The abundance fitness of the first is lower: -0.428 ± 0.1 for the first, -0.092 ± 0.05 for the second.

Going from A39F to A39G, the abundance fitness rises from -0.46 ± 0.19 to 0.061 ± 0.034.

A39Q and A39R are within error of each other in abundance fitness: -0.075 ± 0.077 for the first, -0.17 ± 0.039 for the second.

A39D and A39W are within error of each other in abundance fitness: 0.032 ± 0.097 for the first, -0.071 ± 0.055 for the second.

A39C and A39I are within error of each other in abundance fitness: -0.035 ± 0.089 for the first, -0.029 ± 0.12 for the second.

A39K and A39L are within error of each other in abundance fitness: -0.05 ± 0.071 for the first, -0.04 ± 0.038 for the second.

A39S and A39N are within error of each other in abundance fitness: 0.03 ± 0.049 for the first, 0.076 ± 0.15 for the second.

Going from N40V to N40Q, the abundance fitness rises from -0.266 ± 0.04 to 0.086 ± 0.048.

First: N40W
Second: N40Y
The abundance fitness of the first is lower: -0.512 ± 0.053 for the first, -0.165 ± 0.1 for the second.

Going from N40F to N40M, the abundance fitness rises from -0.373 ± 0.096 to -0.052 ± 0.056.

Compared with N40S, N40I is lower in abundance fitness: -0.012 ± 0.042 for the first, -0.553 ± 0.18 for the second.

N40A and N40K are within error of each other in abundance fitness: -0.023 ± 0.039 for the first, 0.02 ± 0.056 for the second.

N40E and N40D are within error of each other in abundance fitness: 0.004 ± 0.046 for the first, 0.034 ± 0.07 for the second.

First: N40C
Second: N40G
The abundance fitness of the first is lower: -0.085 ± 0.058 for the first, 0.026 ± 0.029 for the second.

Going from N40R to N40T, the abundance fitness falls from 0.016 ± 0.031 to -0.16 ± 0.06.

First: N40L
Second: N40P
The abundance fitness of the first is lower: -0.17 ± 0.041 for the first, -0.002 ± 0.048 for the second.

Going from N40H to G33T, the abundance fitness falls from -0.094 ± 0.084 to -0.575 ± 0.11.

G33L and G33M are within error of each other in abundance fitness: -0.61 ± 0.081 for the first, -0.657 ± 0.11 for the second.

G33Y and G33C are within error of each other in abundance fitness: -1.01 ± 0.35 for the first, -0.652 ± 0.13 for the second.

G33N and G33E are within error of each other in abundance fitness: -0.439 ± 0.13 for the first, -0.541 ± 0.078 for the second.

Going from G33I to G33V, the abundance fitness falls from -0.296 ± 0.24 to -1.05 ± 0.12.

First: G33P
Second: G33A
The abundance fitness of the first is lower: -1.04 ± 0.23 for the first, -0.405 ± 0.056 for the second.

Going from G33Q to G33H, the abundance fitness falls from -0.204 ± 0.075 to -0.618 ± 0.24.

G33K and G33W are within error of each other in abundance fitness: -0.362 ± 0.066 for the first, -0.414 ± 0.096 for the second.

G33S and G33R are within error of each other in abundance fitness: -0.382 ± 0.071 for the first, -0.324 ± 0.045 for the second.

First: G33F
Second: P41V
The abundance fitness of the first is lower: -0.927 ± 0.26 for the first, -0.218 ± 0.043 for the second.

P41L and P41G are within error of each other in abundance fitness: -0.046 ± 0.047 for the first, -0.11 ± 0.033 for the second.

P41Q and P41M are within error of each other in abundance fitness: 0.049 ± 0.055 for the first, 0.115 ± 0.057 for the second.

P41T and P41D are within error of each other in abundance fitness: -0.081 ± 0.058 for the first, -0.092 ± 0.053 for the second.

P41E and P41R are within error of each other in abundance fitness: -0.012 ± 0.042 for the first, 0.018 ± 0.035 for the second.

P41Y and P41A are within error of each other in abundance fitness: -0.021 ± 0.1 for the first, 0.057 ± 0.038 for the second.

For P41I, the abundance fitness was -0.196 ± 0.12.
